Data reported in US20070134256A1 (US Dept. of Health and Human Services, published 2007).

Legend:
[1] = molecular target: T1, dengue type 1 virus (DENV-1), Western Pacific strain, virions (dengue type 1 virus, UniProt P17763 281-775; P17763 115-280); experiment: ELISA, virion-coated plate
[2] = molecular target: T2, dengue type 2 virus (DENV-2), prototype New Guinea C strain, virions (dengue type 2 virus, UniProt P14340 281-775; P14340 115-280); experiment: ELISA, virion-coated plate
[3] = molecular target: T3, dengue type 3 virus (DENV-3), strain H87, virions (dengue type 3 virus, UniProt P27915 281-773; P27915 115-280); experiment: ELISA, virion-coated plate
[4] = molecular target: T4, dengue type 4 virus (DENV-4), strain 814669, virions (dengue type 4 virus, UniProt P09866 280-774; P09866 114-279); experiment: cell-based or functional assay
[5] = molecular target: T1, dengue type 1 virus (DENV-1), Western …; experiment: ELISA, virion-coated plate, Fab from ~300 µg/ml
[6] = molecular target: T2, dengue type 2 virus (DENV-2), prototype …; experiment: ELISA, virion-coated plate, Fab from ~300 µg/ml
[7] = molecular target: T3, dengue type 3 virus (DENV-3), strain …; experiment: ELISA, virion-coated plate, Fab from ~300 µg/ml
[8] = molecular target: T4, dengue type 4 virus (DENV-4), strain …; experiment: ELISA, virion-coated plate, Fab from ~300 µg/ml
[9] = molecular target: DENV-4 prM glycoprotein (dengue type 4 virus, UniProt P09866 114-279); experiment: radioimmunoprecipitation of prM expressed alone by recombinant vaccinia virus

B1: chimpanzee Fab 5D9 (Fab, V domains shown)
VH: EVQLLESGPGLVKPSETLSLTCTVSGGSISDFYWSWLRQSPGKGLEWIGVAHSRVSAYYNPSLKSRVTISVDTSKNQLSLRLSAVTAADAALYYCARQGTGTTGVSEDPFDLWGQGTKVIVSL
VL: ELTQSPSSLSASVGDRVTITCRASQGISNRLNWYQQKPGQGPKFLMYDASSLVSGVPSRFSGSGSGTDFTLTISSLQPEDFAVYYCQQFNSYPLTFGGGTKLEIKR
- binding result [1]: no binding
- binding result [2]: no binding
- binding result [3]: no binding
- PRNT50 titer [4]: 0.58 µg/mL
- ELISA titer of Fab binding [5]: < 1 log10 of reciprocal dilution
- ELISA titer of Fab binding [6]: < 1 log10 of reciprocal dilution
- ELISA titer of Fab binding [7]: < 1 log10 of reciprocal dilution
- ELISA titer of Fab binding [8]: 3.41 log10 of reciprocal dilution
- binding result [9]: no binding
